Like-named read-outs stand apart in the source and are kept apart here.

Experiment in all cases: EMSA
Background: In EMSA bound probe runs differently from free probe, usually more slowly.

The target of data set [1] is T1, Spalt major (Salm) (UniProt P39770 1-1365).
T1 sequence: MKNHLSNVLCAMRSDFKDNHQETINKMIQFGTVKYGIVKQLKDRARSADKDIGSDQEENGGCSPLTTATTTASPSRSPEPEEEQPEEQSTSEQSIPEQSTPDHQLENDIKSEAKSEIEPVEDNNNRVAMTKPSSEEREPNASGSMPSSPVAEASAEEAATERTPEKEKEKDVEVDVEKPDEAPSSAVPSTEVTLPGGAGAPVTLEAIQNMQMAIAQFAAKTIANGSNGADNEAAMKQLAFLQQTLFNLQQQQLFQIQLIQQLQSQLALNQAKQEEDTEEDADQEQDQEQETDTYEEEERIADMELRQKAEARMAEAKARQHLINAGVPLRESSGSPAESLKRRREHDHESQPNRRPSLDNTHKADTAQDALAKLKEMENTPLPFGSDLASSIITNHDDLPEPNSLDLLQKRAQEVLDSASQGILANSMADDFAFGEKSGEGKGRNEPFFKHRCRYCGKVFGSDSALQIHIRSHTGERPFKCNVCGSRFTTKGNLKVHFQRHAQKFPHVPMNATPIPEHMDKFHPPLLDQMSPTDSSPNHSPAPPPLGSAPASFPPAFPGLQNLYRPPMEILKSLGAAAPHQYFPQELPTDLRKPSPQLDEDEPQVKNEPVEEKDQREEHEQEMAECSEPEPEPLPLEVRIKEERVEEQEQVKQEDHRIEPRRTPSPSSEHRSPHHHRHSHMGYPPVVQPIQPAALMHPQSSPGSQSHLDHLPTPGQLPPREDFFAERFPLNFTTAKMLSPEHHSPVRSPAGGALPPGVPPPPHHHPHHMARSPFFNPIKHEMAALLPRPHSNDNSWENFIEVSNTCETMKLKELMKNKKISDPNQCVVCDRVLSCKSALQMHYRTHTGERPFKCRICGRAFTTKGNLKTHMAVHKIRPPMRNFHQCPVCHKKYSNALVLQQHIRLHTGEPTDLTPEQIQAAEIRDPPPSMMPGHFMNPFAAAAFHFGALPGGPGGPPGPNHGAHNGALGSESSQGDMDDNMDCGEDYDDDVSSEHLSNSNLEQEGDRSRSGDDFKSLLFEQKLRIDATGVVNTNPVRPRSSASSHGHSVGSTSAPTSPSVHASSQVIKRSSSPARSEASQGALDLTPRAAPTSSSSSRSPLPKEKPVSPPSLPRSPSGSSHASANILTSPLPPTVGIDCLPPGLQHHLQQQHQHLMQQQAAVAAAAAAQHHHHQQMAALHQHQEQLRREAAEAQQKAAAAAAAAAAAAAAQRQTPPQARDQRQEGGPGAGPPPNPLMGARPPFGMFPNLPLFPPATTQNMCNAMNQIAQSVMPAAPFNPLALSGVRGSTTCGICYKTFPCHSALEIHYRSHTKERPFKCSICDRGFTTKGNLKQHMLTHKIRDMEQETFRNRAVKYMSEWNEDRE

Data set [2] has as its target T1, Spalt major (Salm). This is another data set of the same source.
Data set [3] deals with T1, Spalt major (Salm). This is another data set of the same source.

B1: 60sal (dsDNA)
DNA 1: GCAAAAAGATATCAAAAATGTCGCATATTAATAACGCTCTCCATTGGCGGACACAGGAC
DNA 2: GTCCTGTGTCCGCCAATGGAGAGCGTTATTAATATGCGACATTTTTGATATCTTTTTGC
Consider B1, for which, in data set [1], the binding result is “binds”.

B2: 60salC (5' half, conserved) (dsDNA)
DNA 1: GCAAAAAGATATCAAAAATGTCGCATATT
DNA 2: AATATGCGACATTTTTGATATCTTTTTGC
Regarding B2, in data set [2], the binding result is “binds”.

B3: 60salNC (3' half, non-conserved) (dsDNA)
DNA 1: TTAATAACGCTCTCCATTGGCGGACACAGGAC
DNA 2: GTCCTGTGTCCGCCAATGGAGAGCGTTATTAA
Turning to B3, the binding result in data set [3] was “binds”.

The record behind these values is paper doi:10.1101/2023.09.04.556233.
